One assay addresses AZIN (Homo sapiens) (UniProt O14977). The assay is described as follows: ultracentrifugation. The following applies: cited from earlier work.
The target in assay [1] is antizyme-mRuby2 (antizyme with a C-terminal mRuby2 tag) (UniProt P54368). Briefly: FRET titration. Conditions: parent: est. 24; read off a plot.
Sequence of antizyme-mRuby2 (antizyme with a C-terminal mRuby2 tag) (P54368 whole entry): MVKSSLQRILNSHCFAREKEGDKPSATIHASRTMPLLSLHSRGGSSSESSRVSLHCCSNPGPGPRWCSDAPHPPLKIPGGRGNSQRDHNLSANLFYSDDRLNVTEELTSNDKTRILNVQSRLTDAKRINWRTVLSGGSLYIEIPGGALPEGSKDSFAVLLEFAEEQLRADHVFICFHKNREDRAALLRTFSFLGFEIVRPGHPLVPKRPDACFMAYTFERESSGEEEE

Sequence of Antizyme (P54368 whole entry): as above
Sequence of AZIN (Homo sapiens) (O14977 whole entry): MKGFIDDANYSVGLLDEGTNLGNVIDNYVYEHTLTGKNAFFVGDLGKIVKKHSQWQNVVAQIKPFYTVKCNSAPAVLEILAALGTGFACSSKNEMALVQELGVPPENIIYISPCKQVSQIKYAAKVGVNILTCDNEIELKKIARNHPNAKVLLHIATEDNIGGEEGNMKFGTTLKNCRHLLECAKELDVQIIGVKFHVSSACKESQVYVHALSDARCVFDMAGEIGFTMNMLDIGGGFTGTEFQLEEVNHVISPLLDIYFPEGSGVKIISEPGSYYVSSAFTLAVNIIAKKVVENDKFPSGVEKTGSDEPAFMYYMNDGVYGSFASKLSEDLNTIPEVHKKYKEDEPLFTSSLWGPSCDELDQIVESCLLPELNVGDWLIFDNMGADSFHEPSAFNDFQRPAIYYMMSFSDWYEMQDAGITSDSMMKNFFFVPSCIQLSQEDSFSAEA
Sequence of Clover-AZIN (antizyme inhibitor with an N-terminal Clover tag) (O14977 whole entry, stated change not applied): as the sequence (O14977 whole entry) above

Consider Antizyme (from UniProt P54368), for which the Kd (commonly the equilibrium constant for the complex coming apart) with AZIN (Homo sapiens) is 20 nM. Regarding “Clover-AZIN (antizyme inhibitor with an N-terminal Clover tag) (from UniProt O14977) V137A”, in assay [1], the Kd was determined as 11 nM.

The values are drawn from publication PMC6420652.
